Measured values reported in patent publication US20220211812A1 (Bristol-Myers Squibb, published 2022).
Square brackets hold non-standard residues; d marks the D form. Ends that are not written are not given here. Phe(4-Ac) = CC(=O)c1ccc(C[C@H](N)C(=O)O)cc1

T1: human RXFP1 receptor (human, UniProt Q9HBX9 1-757)
T1 sequence (looked up): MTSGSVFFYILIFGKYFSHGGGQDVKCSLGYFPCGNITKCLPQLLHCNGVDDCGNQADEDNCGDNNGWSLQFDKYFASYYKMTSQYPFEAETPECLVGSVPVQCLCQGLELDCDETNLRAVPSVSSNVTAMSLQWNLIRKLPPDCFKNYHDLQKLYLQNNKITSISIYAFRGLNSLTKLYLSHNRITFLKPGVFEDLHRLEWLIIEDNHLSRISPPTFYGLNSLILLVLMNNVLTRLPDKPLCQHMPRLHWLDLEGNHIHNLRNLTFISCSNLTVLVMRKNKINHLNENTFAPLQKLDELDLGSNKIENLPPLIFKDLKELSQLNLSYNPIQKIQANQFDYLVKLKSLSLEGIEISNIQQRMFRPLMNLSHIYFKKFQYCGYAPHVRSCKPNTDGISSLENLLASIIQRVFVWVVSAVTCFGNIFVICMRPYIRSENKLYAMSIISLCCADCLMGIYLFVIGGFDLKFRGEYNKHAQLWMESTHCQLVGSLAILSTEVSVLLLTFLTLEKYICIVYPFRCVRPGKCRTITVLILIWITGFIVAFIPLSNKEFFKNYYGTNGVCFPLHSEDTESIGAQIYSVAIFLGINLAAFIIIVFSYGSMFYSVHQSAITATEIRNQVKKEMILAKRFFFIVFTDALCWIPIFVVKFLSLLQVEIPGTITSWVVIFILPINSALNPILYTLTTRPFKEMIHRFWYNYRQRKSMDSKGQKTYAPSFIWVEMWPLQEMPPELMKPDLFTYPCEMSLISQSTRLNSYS


Molecular target: T1, human RXFP1 receptor
Test: cell-based or functional assay

Row | Binder | hRXFP1/CHO-K1 cAMP EC50 (nM, avg) [nM]
1 | WT-RLX (ligand, disulfide (positions not given here); ends not checked) chain 1: QLYSALANKCCHVGCTKRSLARFC chain 2: ASWMEEVIKLCGRELVRAQIAICGMSTWS | 0.12
2 | AQ1-GGGGS-Glu^γ-C13-COOH (ligand, not fully specified; Glu^γ bonded by amide to fatty acid -C13-COOH; oxime-linked to pAcF of the A chain; pAcF (para-acetyl-L-phenylalanine) at position 1, oxime-linked to PK enhancer GGGGS-Glu^γ-C13-COOH) chain 1: XLYSALANKCCHVGCTKRSLARFC chain 2: ASWMEEVIKLCGRELVRAQIAICGMSTWS peptide: GGGGSE | 0.14
3 | AQ1-DRDDRD-C13-COOH (ligand, linked to fatty acid -C13-COOH; oxime-linked to pAcF of the A chain; pAcF (para-acetyl-L-phenylalanine) at position 1, oxime-linked to PK enhancer DRDDRD-C13-COOH) chain 1: XLYSALANKCCHVGCTKRSLARFC chain 2: ASWMEEVIKLCGRELVRAQIAICGMSTWS peptide: DRDDRD | 0.32
4 | AQ1-KKKKKK-Glu^γ-C13-COOH (ligand, not fully specified; Glu^γ bonded by amide to fatty acid -C13-COOH; oxime-linked to pAcF of the A chain; pAcF (para-acetyl-L-phenylalanine) at position 1, oxime-linked to PK enhancer KKKKKK-Glu^γ-C13-COOH) chain 1: XLYSALANKCCHVGCTKRSLARFC chain 2: ASWMEEVIKLCGRELVRAQIAICGMSTWS peptide: KKKKKKE | 0.08
5 | AQ1-RGGEEKKKEKEK-Glu^γ-C13-COOH (ligand, not fully specified; Glu^γ bonded by amide to fatty acid -C13-COOH; oxime-linked to pAcF of the A chain; pAcF (para-acetyl-L-phenylalanine) at position 1, oxime-linked to PK enhancer RGGEEKKKEKEK-Glu^γ-C13-COOH) chain 1: XLYSALANKCCHVGCTKRSLARFC chain 2: ASWMEEVIKLCGRELVRAQIAICGMSTWS peptide: RGGEEKKKEKEKE | 0.29
6 | AQ1-GGGEEE-Glu^γ-C13-COOH (ligand, not fully specified; Glu^γ bonded by amide to fatty acid -C13-COOH; oxime-linked to pAcF of the A chain; pAcF (para-acetyl-L-phenylalanine) at position 1, oxime-linked to PK enhancer GGGEEE-Glu^γ-C13-COOH) chain 1: XLYSALANKCCHVGCTKRSLARFC chain 2: ASWMEEVIKLCGRELVRAQIAICGMSTWS peptide: GGGEEEE | 0.22
7 | AQ1-EEEGGG-Glu^γ-C13-COOH (ligand, not fully specified; Glu^γ bonded by amide to fatty acid -C13-COOH; oxime-linked to pAcF of the A chain; pAcF (para-acetyl-L-phenylalanine) at position 1, oxime-linked to PK enhancer EEEGGG-Glu^γ-C13-COOH) chain 1: XLYSALANKCCHVGCTKRSLARFC chain 2: ASWMEEVIKLCGRELVRAQIAICGMSTWS peptide: EEEGGGE | 0.31
8 | AQ1-KKKGGG-Glu^γ-C13-COOH (ligand, not fully specified; Glu^γ bonded by amide to fatty acid -C13-COOH; oxime-linked to pAcF of the A chain; pAcF (para-acetyl-L-phenylalanine) at position 1, oxime-linked to PK enhancer KKKGGG-Glu^γ-C13-COOH) chain 1: XLYSALANKCCHVGCTKRSLARFC chain 2: ASWMEEVIKLCGRELVRAQIAICGMSTWS peptide: KKKGGGE | 0.09
9 | AQ1-GETGSSGEGT-Glu^γ-C13-COOH (ligand, not fully specified; Glu^γ bonded by amide to fatty acid -C13-COOH; oxime-linked to pAcF of the A chain; pAcF (para-acetyl-L-phenylalanine) at position 1, oxime-linked to PK enhancer GETGSSGEGT-Glu^γ-C13-COOH) chain 1: XLYSALANKCCHVGCTKRSLARFC chain 2: ASWMEEVIKLCGRELVRAQIAICGMSTWS peptide: GETGSSGEGTE | 0.65
10 | AQ1-GGGKKK-Glu^γ-C13-COOH (ligand, not fully specified; Glu^γ bonded by amide to fatty acid -C13-COOH; oxime-linked to pAcF of the A chain; pAcF (para-acetyl-L-phenylalanine) at position 1, oxime-linked to PK enhancer GGGKKK-Glu^γ-C13-COOH) chain 1: XLYSALANKCCHVGCTKRSLARFC chain 2: ASWMEEVIKLCGRELVRAQIAICGMSTWS peptide: GGGKKKE | 0.19
11 | AQ1-GSHHHHHGS-Glu^γ-C13-COOH (ligand, not fully specified; Glu^γ bonded by amide to fatty acid -C13-COOH; oxime-linked to pAcF of the A chain; pAcF (para-acetyl-L-phenylalanine) at position 1, oxime-linked to PK enhancer GSHHHHHGS-Glu^γ-C13-COOH) chain 1: XLYSALANKCCHVGCTKRSLARFC chain 2: ASWMEEVIKLCGRELVRAQIAICGMSTWS peptide: GSHHHHHGSE | 0.28
12 | RLX-BM25/AN1 (ligand, disulfide (positions not given here); ends not checked) chain 1: NLYSALANKCCHVGCTKRSLARFC chain 2: ASWMEEVIKLCGRELVRAQIAICG[Phe(4-Ac)]STWS | 0.09
13 | AQ1-Sar-Sar-Sar-Sar-Ser-Sar-Sar-Sar-Sar-Glu^γ-C13-COOH (ligand, not fully specified; Sar = sarcosine (N-methylglycine); Glu^γ bonded by amide to fatty acid -C13-COOH; oxime-linked to pAcF of the A chain; pAcF (para-acetyl-L-phenylalanine) at position 1, oxime-linked to PK enhancer Sar-Sar-Sar-Sar-Ser-Sar-Sar-Sar-Sar-Glu^γ-C13-COOH) chain 1: XLYSALANKCCHVGCTKRSLARFC chain 2: ASWMEEVIKLCGRELVRAQIAICGMSTWS peptide: XXXXSXXXXE | 0.39
14 | AQ1-Sar-Sar-Sar-Sar-Ser-Glu^γ-C13-COOH (ligand, not fully specified; Sar = sarcosine (N-methylglycine); Glu^γ bonded by amide to fatty acid -C13-COOH; oxime-linked to pAcF of the A chain; pAcF (para-acetyl-L-phenylalanine) at position 1, oxime-linked to PK enhancer Sar-Sar-Sar-Sar-Ser-Glu^γ-C13-COOH) chain 1: XLYSALANKCCHVGCTKRSLARFC chain 2: ASWMEEVIKLCGRELVRAQIAICGMSTWS peptide: XXXXSE | 0.32
15 | AQ1-Sar-Sar-Sar-Glu-Glu-Glu^γ-C13-COOH (ligand, not fully specified; Sar = sarcosine (N-methylglycine); Glu^γ bonded by amide to fatty acid -C13-COOH; oxime-linked to pAcF of the A chain; pAcF (para-acetyl-L-phenylalanine) at position 1, oxime-linked to PK enhancer Sar-Sar-Sar-Glu-Glu-Glu^γ-C13-COOH) chain 1: XLYSALANKCCHVGCTKRSLARFC chain 2: ASWMEEVIKLCGRELVRAQIAICGMSTWS peptide: XXXEEE | 0.59
16 | AQ1-KKSGGSGG-Glu^γ-C13-COOH (ligand, not fully specified; Glu^γ bonded by amide to fatty acid -C13-COOH; oxime-linked to pAcF of the A chain; pAcF (para-acetyl-L-phenylalanine) at position 1, oxime-linked to PK enhancer KKSGGSGG-Glu^γ-C13-COOH) chain 1: XLYSALANKCCHVGCTKRSLARFC chain 2: ASWMEEVIKLCGRELVRAQIAICGMSTWS peptide: KKSGGSGGE | 0.34
17 | AQ1-KKSGGSGG-Glu^α-C13-COOH (ligand, not fully specified; Glu^α linked to fatty acid -C13-COOH; oxime-linked to pAcF of the A chain; pAcF (para-acetyl-L-phenylalanine) at position 1, oxime-linked to PK enhancer KKSGGSGG-Glu^α-C13-COOH) chain 1: XLYSALANKCCHVGCTKRSLARFC chain 2: ASWMEEVIKLCGRELVRAQIAICGMSTWS peptide: KKSGGSGGE | 0.27
18 | AQ1-KKSAGSAG-Glu^γ-C13-COOH (ligand, not fully specified; Glu^γ bonded by amide to fatty acid -C13-COOH; oxime-linked to pAcF of the A chain; pAcF (para-acetyl-L-phenylalanine) at position 1, oxime-linked to PK enhancer KKSAGSAG-Glu^γ-C13-COOH) chain 1: XLYSALANKCCHVGCTKRSLARFC chain 2: ASWMEEVIKLCGRELVRAQIAICGMSTWS peptide: KKSAGSAGE | 0.27
